The source of these data is patent US20160194408A1 (published 2016).

Read-outs that look alike come from different tables or passages of the source.

Experiment [1] concerns the target T1, human Proprotein Convertase Subtilisin-like/Kexin type 9 (UniProt Q8NBP7 31-692). As to the kind of experiment: ELISA. Background: An ELISA detects its analyte on a solid surface through an enzyme-linked reagent.
Target sequence in this assay (Q8NBP7 31-692): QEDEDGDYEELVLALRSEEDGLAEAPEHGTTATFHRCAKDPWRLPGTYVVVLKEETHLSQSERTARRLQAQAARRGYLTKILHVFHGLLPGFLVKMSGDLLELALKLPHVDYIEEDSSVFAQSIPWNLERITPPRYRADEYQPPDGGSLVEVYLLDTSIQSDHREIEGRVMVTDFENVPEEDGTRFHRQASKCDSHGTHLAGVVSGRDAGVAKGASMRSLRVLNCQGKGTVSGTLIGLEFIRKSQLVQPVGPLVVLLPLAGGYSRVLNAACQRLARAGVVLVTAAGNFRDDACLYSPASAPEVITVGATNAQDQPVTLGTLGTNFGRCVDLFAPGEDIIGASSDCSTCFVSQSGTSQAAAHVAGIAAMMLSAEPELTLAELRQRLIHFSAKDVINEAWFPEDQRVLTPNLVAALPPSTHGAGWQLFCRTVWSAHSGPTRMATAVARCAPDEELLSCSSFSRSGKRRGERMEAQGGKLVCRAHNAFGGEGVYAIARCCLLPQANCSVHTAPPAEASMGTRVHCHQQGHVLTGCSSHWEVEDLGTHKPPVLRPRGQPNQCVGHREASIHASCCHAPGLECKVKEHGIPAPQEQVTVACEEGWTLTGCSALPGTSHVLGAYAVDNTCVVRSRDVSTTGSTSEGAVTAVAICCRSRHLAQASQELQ
Another experiment has as its target T2, cynomolgus monkey PCSK9 (cynomolgus monkey, UniProt A0A7N9D9N8 150-747).
T2 chain: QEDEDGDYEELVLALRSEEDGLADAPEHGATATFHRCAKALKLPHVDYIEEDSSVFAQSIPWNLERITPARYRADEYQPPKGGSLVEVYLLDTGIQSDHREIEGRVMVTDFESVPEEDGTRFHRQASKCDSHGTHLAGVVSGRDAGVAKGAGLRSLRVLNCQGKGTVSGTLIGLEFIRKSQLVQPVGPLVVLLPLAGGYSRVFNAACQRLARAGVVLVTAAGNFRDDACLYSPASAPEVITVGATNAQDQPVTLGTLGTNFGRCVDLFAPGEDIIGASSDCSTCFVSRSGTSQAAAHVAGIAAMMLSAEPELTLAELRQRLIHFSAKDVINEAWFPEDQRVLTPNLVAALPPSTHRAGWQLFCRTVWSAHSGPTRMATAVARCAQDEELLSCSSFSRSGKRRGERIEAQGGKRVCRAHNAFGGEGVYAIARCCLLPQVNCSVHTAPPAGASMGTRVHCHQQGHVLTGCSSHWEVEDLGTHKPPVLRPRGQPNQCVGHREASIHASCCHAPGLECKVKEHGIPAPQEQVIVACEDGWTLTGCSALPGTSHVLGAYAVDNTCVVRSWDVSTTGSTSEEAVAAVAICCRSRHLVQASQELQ
In words: ELISA.

The target in experiment [2] is T1, human Proprotein Convertase …. In words: ELISA. The source holds these as a separate data set.
Experiment [3] shares this target. As to the kind of experiment: PCSK9-LDLR blocking ELISA.
Experiment [4] shares this target. As to the kind of experiment: ELISA. The source holds these as a separate data set.
Experiment [5] shares this target. In words: PCSK9-LDLR blocking ELISA. The source holds these as a separate data set.

B1: Ab3 (antibody, V domains shown)
VH: QSVEESGGRLVTPGGSLTLTCTASGFSLSSYYMSWVRQAPGKGLEWIGIIYPSGSTYYASWAKGRFTISKTSTTVDLKITSPTVEDTATYFCARGGAYATLNLWGPGTLVTVSS
VL: AVLTQTPSPVSAAVGGTVTISCQSSQSVYHNNLLSWYQQKPGQPPKLLIYDASKLTSGVSSRFSGSGSGTQFTLTISGVQCDDAATYYCLGGYDDDADNGFGGGTEVVVKR
As usually defined, the EC50 is the concentration that produces a half-maximal response. In experiment [1], B1 yielded an EC50 of 0.105 nM.

B2: Ab17 (antibody, V domains shown)
VH: QEQLEESGGDLVKPEGSLTLTCTASGFSFSSSYWICWVRQAPGKGLEWIGCIRPGSADYYASWAKGRFTISRASSSTVTLQMTSLTAADTATYFCASDINDGWLGQFNLWGPGTLVTVSS
VL: DVVMTQTPASVEAAVGGTVTIKCQASLSIADYLAWYLQKPGQPPKLLIYRASTLASGVPSRFKGSGSGTEYTLTISDLECADAATYYCQSYYSVTTNTYGNTFGGGTEVVVKR
Consider B2, for which the values for the EC50 (with cynomolgus monkey PCSK9; in experiment [2]) were 0.278 nM and 0.301 nM, respectively.

B3: Ab16 (antibody, V domains shown)
VH: QEQLVESGGGLVQPEGSLTLTCTASGFSFSSDYWICWVRQAPGKGLEWIGCIRDGGGSYYANWAKGRLTISMTSSTTVGLKMTSLTAADTATYFCASDINDGWLGQFNLWGPGTLVTVSS
VL: DIVMTQTPASVEAAVGGTVTIKCQASQSISSYLAWYQQKPGQPPKLLIYRASTLASGVPSRFSGSGSGTEFTLTISDLECADAATYYCQSYYSVTTVTYGNTFGGGTEVVVKR
Turning to B3, the results for the EC50 (with cynomolgus monkey PCSK9; in experiment [2]) were 0.31 nM and 0.286 nM, respectively.

B4: Ab4 (antibody, V domains shown)
VH: QSVEESGGRLVTPGTPLTLTCTVSGIDLSSYAMIWVRQAPEKGLEYIGYIGGIDSTYYASWAKGRFTISKTSTTVDLKMTSPTTEDTATYFCGRWSGTSGYNTIWGPGTLVTVSS
VL: DVVMTQTPASVEAAVGGTVTIKCQASQSIYSNLAWYQQKPGQPPKLLIYGASNLASGVSSRFKGSRSGTEYTLTISDLECADAATYYCQCTGGGDSGNTFGGGTEVVVKR
Molecule B4 came in with an EC50 in experiment [1] of 0.0843 nM.

B5: Ab2 (antibody, V domains shown)
VH: QSVEESGGRLVTPGTPLTLTCTVSGFSLSSYAMSWVRQAPGKGLEWIGIIDAIDNTYYASWAKGRFTISKTSTTVDLKMTSLTTGDTATYFCARASILGYSIATGFNIWGPGTLVTVSS
VL: AYDMTQTPASVEVAVGGTVTIKCQASQSISSHLAWYQQKSGQPPKLLIYRASTLESGVSSRFKGSGSGTEFTLTISDLECADAATYYCQQGYGVSDVDNGFGGGTEVVVKR
Molecule B5 yielded an EC50 in experiment [1] of 0.0936 nM.

B6: Ab9 (antibody, V domains shown)
VH: QSVEESGGRLVTPGTPLTLTCTVSGIDLSSYAMGWVRQAPGKGLEYIGIIVSYGPTYYASWAKGRFTISKTSTTVDLKITSPTAEDTATYFCARDLDANSSGYYGCFNIWGQGTLVTVSS
VL: AVVLTQTPASVSAAVGGTVTIKCQASQSISTALAWYQQKPGQPPKLLIYAASPLASGVSSRFKSSGSGTEFTLTISDLECADAATYYCQSYYGSSNIAFGGGTELEILR
In general, IC50 refers to the midpoint of a concentration-inhibition curve. B6 returned an IC50 in experiment [3] of 1.59 nM.

B7: Ab19 (antibody, V domains shown)
VH: EVQLVESGGGLVQPGGSLRLSCAASGIDLSSYAMGWVRQAPGKGLEYIGIIVSYGPTYYASWAKGRFTISRDNSKNTVYLQMNSLRAEDTATYFCARDLDAQSSGYYGAFNIWGQGTLVTVSS
VL: DIQMTQSPSTLSASVGDRVTITCQASQSISTALAWYQQKPGKAPKLLIYAASPLASGVPSRFSGSGSGTEFTLTISSLQPDDFATYYCQSYYGSSNIAFGGGTKVEIKR
B7: in experiment [4], the midpoint of the response, the EC50, lay at 0.943 nM.

B8: Ab22 (antibody, V domains shown)
VH: EVQLVESGGGLVQPGGSLRLSCAASGFSLSSYAMNWVRQAPGKGLEWIGAIRSSGATFFASSVNGRFTISRDNSKNTVYLQMNSLRAEDTAVYYCARDTNDGWYINRLDLWGQGTLVTVSS
VL: AVLTQSPSTLSASVGDRVTITCQSSKSVYSNYLSWFQQKPGKAPKFLIYKASTLASGVPSRFSGSGSGTEFTLTISSLQPDDFATYYCAGGDTNIADNAFGGGTKVEIKR
For B8, the IC50 in experiment [5] amounted to 3.3 nM.

B9: Ab1 (antibody, V domains shown)
VH: QSVEESGGRLVTPGTPLTLTCTVSGFSLSSYWMTWVRQAPGKGLEYIGIISSSGSTYYATWAKGRFTISKTSSTTVDLEITSPTTEDTATYFCARDSAFSSGLEFNIWGPGTLVTVSS
VL: AYDLTQTPASVEVAVGGTVTIKCQASQSVYSNWLSWYQQKPGQPPKLLIYDASDLASGVPSRFKGSGSGTQFTLTISGVQCDDAATYYCQQGQSSSDIDNTFGGGTEVVVKR
In experiment [1], B9 had an EC50 of 0.117 nM.
